Source: the DeepSol protein solubility set

Assay: soluble on expression in E. coli; label from the status in PepcDB or PDB records

Sequence	soluble on expression in E. coli
GSRAQSSPAAPASLSAPEPASQARVLSSSETPARTLPFTTGLIYDSVMLKHQCSCGDNSRHPEHAGRIQSIWSRLQERGLRSQCECLRGRKASLEELQSVHSERHVLLYGTNPLSRLKLDNGKLAGLLAQRMFVMLPCGGVGVDTDTIWNELHSSNAARWAAGSVTDLAFKVASRELKNGFAVVRPPGHHADHSTAMGFCFFNSVAIACRQLQQQSKASKILIVDWDVHHGNGTQQTFYQDPSVLYISLHRHDDGNFFPGSGAVDEVGAGSGEGFNVNVAWAGGLDPPMGDPEYLAAFRIVVMPIAREFSPDLVLVSAGFDAAEGHPAPLGGYHVSAKCFGYMTQQLMNLAGGAVVLALEGGHDLTAICDASEACVAALLGNRVDPLSEEGWKQKPNLNAIRSLEAVIRVHSKYWGCMQRLAS	soluble
MMLCFQEVALNGGNILSKFTERLLTILYPPICPGCKQRVSAYGTICSECWKDLQFITKPYCPVMGVPFVYDMGDGFLSGEALQNSLPFSRVRSVIVHKGVAQSLVTRLKYGDHVELASFMANWMVSAGREIVDDCDIIISVPLHFRRFLKRRYNQSAELARYIARVQKKEFKPGWLVRCRHTRPQVNLSARERKLNVLNAFEVPRKVKKYLKGRSILLIDDVFTTGATVTAAAATLKRAGARQVDVLTFSRVLKEASIFPNS	not soluble
MLGIYVLSVDRQSPFAQALKVGDTVTEVNGHHFNSMTGYQRYIQRQKVGQRATITYQRNGKTHHVTAKLMRLPTKKAGIGITLEHHHHHH	not soluble
GMLAETDEYMAGGKRPARVYRVVNGIAVLPVTGTLVHRLGGMRPFSGMTGYDGIVACLQQAMADSQVRGILLDIDSPGGQAAGAFDCADMIYRLRQQKPVWALCNDTACSAAMLLASACSRRLVTQTSRIGSIGVMMSHVSYAGHLAQAGVDITLIYAGAHKVDGNQFEALPAEVRQDMQQRIDAARRMFAEKVAMYTGLSVDAVTGTEAAVFEGQSGIEAGLADELINASD	not soluble
GPGSMLRVSLACRVTAARSAAPHTTSSSSSLVESVTSVFRSSRYLRHAPPRLYVTCSHDQGIPLHGCGRHMTTVLDVSREASPNAPPHTQSIYLLTSTSISDVEFKDSAAQSQVLVGLPQVQSIDAIHRFCDTYAATLSRVHHILLPGGVSPLQSSLIKQLLEHIPQARLVCNGFGHALLTNATFHDGVQRAVLENEPDAPPELLRFAALPADRVSSMADGDTVAVDVAKSEAESSAPVAARALRVVAVKSKGQQQRRREHSQTHHPAHFTNEALFYYDDVFNALFVGHTLHRLPWLPTVLTEASRELFLPMPPPLATQRPLSRPSPLLDTWRVLESCEDVVEALRRTPELERVLAGSYGELCGNVEDCIAGLESSSDALERLRSRLARRLTTDTSRDVHRWSTALLKRIVHEVVCTQKASEPTSSEVQEAFLCWARTDGEWGRLSTCLAHAAMVLPPSTETGEADGASSSAADSFAAHDSVPAAGATAAGESAAPEALQGTHGVELLVAVFNRKGLQGLIRTVQRETIDVQVFLAMSEEDLKKVFKATFGITKRLMLLQDELRKNL	not soluble
QQEVYGMMPRDETDSKTASASPWKSARLMVHTVATFNSIKER	soluble
MGSDKIHHHHHHMSDLITLAQLSQGYRYNSDSLILADFILKQGIKGAVFDVGAGCGIIGILLKKNIANLSLSLIDIQKENIELIEKNLKSNKIQGDIFHDDFNQFQIIKKFDFIVCNPPFYRQGAYKSEDQHKAISKFQEFLPLHSFLAKTNSMLKPNGTLYFCYEALALDEICFILKDMKMKITKLCFVHTHQSKKARLVLIQVKKGSKSPCEILPPFFVYENEILSKQMQEIHLRFRLKSYDI	not soluble
SLGKEVATRATNDERCKILEQRLEQGMVFTEYERILKKRLVDGECSTARLPENAERNRFQDVLPYDDARVELVPTKENNTGYINASHIKVSVSGIEWDYIATQGPLQNTCQDFWQMVWEQGIAIIAMVTAEEEGGREKSFRYWPRLGSRHNTVTYGRFKITTRFRTDSGCYATTGLKMKHLLTGQERTVWHLQYTDWPEHGCPEDLKGFLSYLEEIQSVRRHTNSTSDPQSPNPPLLVHSSAGVGRTGVVILSEIMIACLEHNEVLDIPRVLDMLRQQRMMLVQTLCQYTFVYRVLIQFLKSSRLI	soluble
MNAIIFCLLFTTVTATYEVFGKGIEHRNEHLIINQLDIIPVESTPTPNRASRVQKRLCGRRLILFMLATCGECDTDSSEDLSHICCIKQCDVQDIIRVCCPNSFRK	not soluble
LASIFVDVSSVEPGVQLTVKFLGKPIFIRRRTEADIELGRSVQLGQLVDTNARNANIDAGAEATDQNRTLDEAGEWLVMWGVCTHLGCVPIGGVSGDFGGWFCPCHGTHYDSAGRIRKGPAPENLPIPLAKFIDETTIQLG	soluble
MSLYSTDSGNLFHAGRILVVLVGLPATSKTLLSVAITRYTRWLGVRTKSFHFSEYKESAKNIPSDYFCVVPTSKEGVAFVEKLRMQMLNDILAFFNDLSGQLAIYDALNIRKIDRKNLETTFSEIGVKVLFIESIVSDQEIMNRNIALALESNDYKGLSTDEAIDEYMRRLSVNEPYYEMMTHDEELSYIKYINLGKQIIVKDNIHGYLVNKIVFFLMNLRQKKGCVYFARCGTSDKDNYIHDEELNEEGIHYSQVLKDFVLQRIKQKRQAKKNSDSLVEVIDGSHDEDLKTSLIVWTGPRKRTHDTALFFSKEGIKVQQRSELRQLNPGSIADLTDQQIMDKFPSEYKESLKDPYHFRFPRAESYHDLAVRMEPLLLEMEHTSKDILIIAHESTLRVLYGYLMACTCVELPNLNFTRDKLVEISFSPFCNTVELLNIPLTEGHHHHHH	soluble
SNAEQVRQAGIDDIGGILELIHPLEEQGILVRRSREQLEQEIGKFTIIEKDGLIIGCAALYPYSEERKAEMACVAIHPDYRDGNRGLLLLNYMKHRSKSENINQIFVLTTHSLHWFREQGFYEVGVDYLPGAKQGLYNFQRKSKILALDL	soluble
MEILSGRSSIIIDTDPINVYNQAHPPFSFPIPAKDVMSVASRPDLRNENLMVFSSIEGDLALLKSMNLPANVKIVYDNTDGSWVRYYPYAFYRSINAEELYAKIDDFVVLDIREEFELFSGFIEGSVNIPFSSIMQEPVELDKNRKYAVVCAHGNRSRVAVELLSSKGIEVYDVPGGMQKWLETGLPVSYEED	not soluble
MGGFLVLNSSNNVVRTVPSKKRKHPEYKSKGSQIRELISGIRSDNLREAVRLPQGVDINEWFAMNNFFNQISLLYATLEEFCTQTTCPVMNAGRYEYRWADGTTITKPKTVSAPKYVEYLIDWVETEIDNEAIFPKNPGEPFPPNFEDFVKRILRKLFRVYAHIYYSHFHEIVALNEQAHLNTCFKHFLLFVSEFQLVDKEKEMAPIKSLVETMLDQ	soluble
MGSDKIHHHHHHMSERPTLHVVSLSGGKDSTATLCVALEQHGSENVRAVMADTGNEDEQNLEYALDYLPRALGIPVDVVRADFTDEFATKRANLARIAAGEPESAVYGKREFMYRWTPEAAARALEVLHPTGIPFLDLCLVRGGFPSRKRQFCTQYLKTEQLVGYALREIDRGYAVWSWQGVRIDESDSRRERLQGTGACVKAFEVVGGGLFNYRPILRWSAADVFEAHAAAGIRPNPLYRQGMSRVGCMPCINAGKLELREIARRFPEHVERIAEWERLVSEVCRPGSPVSFFHQGTTGHTGQASTIWKVVDWSKTSRGGRQYDLLADAEPATACSSAYGLCE	not soluble
MSLDWDSVHVPGPHAMTIQELVDYVNARQKQGIYEEYEDIRRENPVGTFHCSMSPGNLEKNRYGDVPCLDQTRVKLTKRSGHTQTDYINASFMDGYKQKNAYIGTQGPLENTYRDFWLMVWEQKVLVIVMTTRFEEGGRRKCGQYWPLEKDSRIRFGFLTVTNLGVENMNHYKKTTLEIHNTEERQKRQVTHFQFLSWPDYGVPSSAASLIDFLRVVRNQQSLAVSNMGARSKGQCPEPPIVVHCSAGIGRTGTFCSLDICLAQLEELGTLNVFQTVSRMRTQRAFSIQTPEQYYFCYKAILEFAEKEGMVSSGQNLLAVESQEGHHHHHH	soluble
MKYRITTWLAAALMLSSLHATAASLSDIQVSNGDQQARITLSFVGEPEYSFTPQGKRLVALDIKQTGVLQGLPLQFSGSNLVKSIRAGTPQDTQTLRLLVDLTEDGKTRAVKQQNGANYTVVFTINAEAPPPPVVVKRADPPPVMPSRTTTPGRNPFSSSGHERQTVMTSSQPAMTNNQTVTRPAARTVSADDKVIIAIDAGHGGQDPGAIGPNGTKEKNVTIAIARKLRALLNADPQFKPVLTRDGDYFISVMGRSEVARKQNANFLVSIHADAAPNRDATGASVWVLSNRRANSEMAGWLEQHEKQSELLGGAGDVLANSQADPYLSQAVLDLQFGHSQRVGYDVATNVLSQLQRIGNLHKRRPEHASLGVLRSPDIPSILVETGFISNNGEERLLGSDDYQEQIAEAIYNGLRNYFMQHPLQSAPRGEAAQTASAAAPGGMLIN	not soluble
MSPTLTHLALHVPDLDACIAFYETFCGMRVIHRRPGKGSQIVWMAEPGQEQRFIFVIMPGGQPRNLASDDYSHFGFALSSRAAVDDLARRAEAAGCLVWAPRDEPYPVGYYCGLRDPAGNYVEFSYGQPLGPGSEALPIP	not soluble
MSPANRVVQPYSKEDLAIQVSQLSGSRAAIWKALDSIDSWSYRVFDVQAAMSGDDYLSLSTQTHGGSLLITMYALLCMHDFLQKFKIDEQIALNWISAVEASYHGNPYHNSMHAADVLQITDFIITQGGLAKRCDLSDIQVFSALLAASIHDFDHPGINNNFHIKTGSYLATLYNDRSVLENLHVSSVFELMKNPAFNILASFSDEQHHEVRETMIEMVLATDMGSHGKYVASLKGKMQEHSSFTQTAEQNLCLAIALKMADISNCGRPLDIYLRWGAKVSDEFYQQGDRERNLGLECSPFMDRLQPSLAKSQIAFMNYIITPFFEQVAELLPDMRFAVALVEENKAYWANHDDS	not soluble
MGSDKIHHHHHHMKLLLTRPEGKNAAMASALDALAIPYLVEPLLSVEAAAVTQAQLDELSRADILIFISTSAVSFATPWLKDQWPKATYYAVGDATADALALQGITAERSPADSQATEGLLTLPSLEQVSGKQIVIVRGKGGREAMADGLRLRGANVSYLEVYQRACPPLDAPASVSRWQSFGIDTIVVTSGEVLENLINLVPKDSFAWLRDCHIIVPSARVETQARKKGLRRVTNAGAANQAAVLDALGM	not soluble
MTILSVSPNKREDLSMKRKIALAMVLAMTASMAQPVLAADSKTTLDVIISQYGTQTQTWWTQFEKDFEAENPDIDLNVEIVSWNDLYTKVNTLVANNNAPDILNIDVLADYVADDLLMPATEYASEDLQAKFFPAFWEASTIDDTVYALPILASCRALFYNKDILDEAGATVPTTWAEVQETAQKIKDKFGDDVYPWGIDMTTDEGQAAFSYYTWNNGGGFVDENGDWALNSDKNVEALNFAIGLVNDGYTNSDPANETRYDLQDMFGAGKVAMMIGPNNIPTYLSDGGYDINYDVTTIPANEGCDSVAMGVCDRLEVFKDDSAEDQEARTAAISKFFDFFYDDERYADYMVFEGFLPTTQTAADLLAKDDDTFASWIDILQSCNFYPATKTEWADVKQGVIEVEQNALLGDDVQTLLDDLQADIAG	not soluble
METTLVIIRGNSGSGKTTLAQALQRRVGHHTLLVSQDVVRRDMLMSHDYPGNISIGLIEQIVCYGLGRVPVVIVEGILARDRYGKMLARLSQSFPRVLTYYFEVSFATTLARHQKRHRDFGVEDMRRWWLPHDTLGVANEVLIGEQQDLTTEVQQIMTTIHDCDLEHHHHHH	not soluble
MSSRIRINTKSLLVQPGYSGSKMRDRLFFLLSKYGIRPRDSIGQHFLIIEDVIEKAIETANVNENDVILEVGPGLGFLTDELAKRAKKVYTIEIDQKIIEILKKEYSWNNVKIIQGDAVRVEWPKFNKVVSNIPYKISSPFTFKLLKTDFERAVVMYQLEFALRMVAKPGSRNYSRLSLMAQALGNVEIVMKIGKGAFYPRPKVDSALVLIEPRKDKIVLNENLVKALFQHRRKTVPRALKDSIHMLGVSKDEIRGIINNVPHSNKRVFQLYPEEVKDIEEYLKKHGIIS	soluble
